Measured values as given in patent US10844127.
Like-named read-outs stand apart in the source and are kept apart here.

Assays:
Experiment in all cases: cell-based or functional assay
[1] = molecular target: human EGFR, full length (human) (UniProt P00533)
[2] = molecular target: human HER3 (ErbB-3) on BxPC-3 cells (human) (UniProt P21860)
[3] = molecular target: human EGFR, full length (human) (UniProt P00533); remark: listed apart in the source
[4] = molecular target: human HER3 (ErbB-3) on BxPC-3 cells (human) (UniProt P21860); remark: listed apart in the source

IC50 for BxPC-3 ligand-driven cell proliferation inhibition (pM) [1]: 260 pM
IC50 for BxPC-3 ligand-driven cell proliferation inhibition (pM) [2]: 260 pM
IC50 for BxPC-3 ligand-driven cell proliferation inhibition (pM) [3]: 287 pM
IC50 for BxPC-3 ligand-driven cell proliferation inhibition (pM) [4]: 287 pM
B1: MEHD7945A (antibody, INN chains, looked up, V domains shown)
VH: EVQLVESGGGLVQPGGSLRLSCAASGFTLSGDWIHWVRQAPGKGLEWVGEISAAGGYTDYADSVKGRFTISADTSKNTAYLQMNSLRAEDTAVYYCARESRVSFEAAMDYWGQGTLVTVSS
VL: DIQMTQSPSSLSASVGDRVTITCRASQNIATDVAWYQQKPGKAPKLLIYSASFLYSGVPSRFSGSGSGTDFTLTISSLQPEDFATYYCQQSEPEPYTFGQGTKVEIK
